From patent US20190247357A1, “NANOPARTICLE FORMULATIONS AND METHODS OF MAKING AND USING THEREOF” (Abraxis BioScience, LLC, priority 2016, published 2019)

Columns and labels:
ErbB2 [1] = target: ErbB2 (UniProt P04626); experiment: Phospho(Tyr1248)/Total ErbB2 binding assay, MSD whole cell lysate kit, BT-474 cells treated 2 h
ErbB2 [2] = target: ErbB2 (UniProt P04626); experiment: Phospho(Tyr1248)/Total ErbB2 binding assay, MSD whole cell lysate kit, SK-BR-3 cells treated 2 h
[3] = system: A375 human melanoma cells; experiment: A375 melanoma xenograft model: tumor volume change and survival; conditions: mice with tumors larger than 2000 mm^3 euthanized
Procedure: A375 human melanoma cells were subcutaneously injected into mice to generate xenograft models. The tumors were allowed to grow to about 600 mm^3 before treatment according to the following protocols. Nine mice were treated for each protocol, except as noted.
Cohort 1—Vehicle control (“Vehicle”). […] The vehicle control was administered to each mouse at a dosage of 120 μL/mouse on the second day of the experiment.
Cohort 4—BEV12 and ABX30 on same day (“BEV12+ABX30—Same Day”).
P-values were determined using an un-paired t-test.
Survival time of the treated mice was also recoded. Mice with tumors larger than 2000 mm^3 were euthanized.

Row | Substance | IC50 (ErbB2 [1]) | IC50 (ErbB2 [2]) | Median Survival [3]
1 | Click conjugate of trastuzumab and nab-paclitaxel particles (Example 26, paclitaxel:trastuzumab 51:1) (from UniProt P02768 25-609) | 0.702 nM | 0.59 nM | –
2 | Nanoparticles with embedded trastuzumab, paclitaxel and albumin (Example 12, Batch 1, paclitaxel:trastuzumab 5.6:1) (from UniProt P02768 25-609) | 0.35 nM | 0.357 nM | –
3 | Nanoparticles with embedded trastuzumab, paclitaxel and albumin (Example 12, Batch 2, paclitaxel:trastuzumab 5.9:1) (from UniProt P02768 25-609) | 0.349 nM | 0.361 nM | –
4 | Nanoparticles with embedded trastuzumab, paclitaxel and albumin (Example 12, Batch 3, paclitaxel:trastuzumab 6.7:1) (from UniProt P02768 25-609) | 0.456 nM | 0.37 nM | –
5 | Nanoparticles with embedded trastuzumab, paclitaxel and albumin (Example 12, Batch 4, paclitaxel:trastuzumab 4.5:1) (from UniProt P02768 25-609) | 0.429 nM | 0.289 nM | –
6 | Nanoparticles with embedded trastuzumab, paclitaxel and albumin, with free mAb (Example 20, paclitaxel:trastuzumab 10:1) (from UniProt P02768 25-609) | 0.524 nM | 0.409 nM | –
7 | SM(PEG)6 conjugate of trastuzumab and isolated nab-paclitaxel particles (Example 23, paclitaxel:trastuzumab 92.5:1) (from UniProt P02768 25-609) | 0.291 nM | 0.557 nM | –
8 | SM(PEG)6 conjugate of trastuzumab and nab-paclitaxel particles with free mAb (Example 35, paclitaxel:trastuzumab 10:1) (from UniProt P02768 25-609) | 0.441 nM | 0.301 nM | –
9 | Thiolated conjugate of trastuzumab and nab-paclitaxel particles (Example 33, paclitaxel:trastuzumab 12:1) (from UniProt P02768 25-609) | 0.216 nM | 0.977 nM | –
10 | Thiolated conjugate of trastuzumab and nab-paclitaxel particles (Example 34, paclitaxel:trastuzumab 31:1) (from UniProt P02768 25-609) | – | 0.311 nM | –
11 | bevacizumab: antiangiogenic antibody that targets vascular endothelial growth factor A (VEGF-A) | – | – | 38 days
